Assay results reported in patent publication EP1645881A1.

How the values were obtained:
[1] = molecular target: monomeric Red Fluorescent Protein 1 (mRFP1); assay: dual-colour FCCS in living HeLa cells, proteins expressed separately from pIRES-EGFP-mRFP1 (negative control, 0% interaction)
[2] = molecular target: JunΔdimΔDNA-mRFP1 (human) (UniProt P05412); assay: dual-colour FCCS in living HeLa cells; references: 13% for no interaction, 45% for 100% interaction
UniProt P05412, sequence (P05412 other isoform, or with tags, fused parts or gaps mutant): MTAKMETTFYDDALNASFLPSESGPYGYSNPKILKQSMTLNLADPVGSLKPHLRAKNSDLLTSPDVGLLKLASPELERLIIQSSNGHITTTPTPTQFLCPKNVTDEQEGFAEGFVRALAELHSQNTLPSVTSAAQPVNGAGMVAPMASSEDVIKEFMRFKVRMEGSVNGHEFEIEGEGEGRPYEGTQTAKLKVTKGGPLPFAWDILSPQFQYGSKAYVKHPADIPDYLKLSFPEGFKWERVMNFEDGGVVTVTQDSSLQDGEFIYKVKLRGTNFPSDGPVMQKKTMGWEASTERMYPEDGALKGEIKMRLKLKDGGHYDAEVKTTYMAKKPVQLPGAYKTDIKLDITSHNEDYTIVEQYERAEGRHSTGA

Row | cross-correlation amplitude (percent of the autocorrelation signal) [1] [%] | cross-correlation amplitude [2] [%] | Substance
1 | 13 | – | Enhanced Green Fluorescent Protein (EGFP)
2 | – | 18 | FosΔdimΔDNA-EGFP (from UniProt P01100 1-138)
